Here are results for two molecules from patent EP4527849A1 (Universitätsmedizin der Johannes Gutenberg-Universität Mainz, dated 2025).

Assay [1] has as its target T1, human PD-L1 (Programmed death-ligand 1) (human, UniProt Q9NZQ7 19-290).
T1 construct: No signal peptide limits are stated; also called CD274; B7-H1
Description: IFNg-ELISPOT with TCR-transduced T cells and blocking anti-PD-L1 antibodies; binding inferred from recognition.

A further assay concerns the target T2, full-length murine PD-L1 (murine, UniProt Q9EP73 19-290).
T2 construct: whole, on cells; also called mPD-L1; murine homologue of PD-L1
Description: IFNg-ELISPOT; TCR-transduced T cells on 293T B2M/CIITA knockout cells transfected with full-length murine PD-L1.

The target of assay [2] is T1, human PD-L1 (Programmed death-ligand 1). Description: IFNg-ELISPOT on 293T B2M/CIITA knockout cells transfected with full-length or single-domain PD-L1 constructs; binding inferred from recognition.

T1 sequence (Q9NZQ7 19-290 limits assumed): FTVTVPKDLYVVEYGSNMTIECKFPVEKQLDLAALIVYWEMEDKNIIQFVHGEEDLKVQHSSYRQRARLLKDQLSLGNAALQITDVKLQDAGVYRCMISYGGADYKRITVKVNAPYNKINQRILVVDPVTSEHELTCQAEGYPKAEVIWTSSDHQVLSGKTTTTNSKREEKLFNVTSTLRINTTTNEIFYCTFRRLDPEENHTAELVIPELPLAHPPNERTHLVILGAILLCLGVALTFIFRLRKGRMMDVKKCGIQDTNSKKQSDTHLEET
T2 sequence (Q9EP73 19-290): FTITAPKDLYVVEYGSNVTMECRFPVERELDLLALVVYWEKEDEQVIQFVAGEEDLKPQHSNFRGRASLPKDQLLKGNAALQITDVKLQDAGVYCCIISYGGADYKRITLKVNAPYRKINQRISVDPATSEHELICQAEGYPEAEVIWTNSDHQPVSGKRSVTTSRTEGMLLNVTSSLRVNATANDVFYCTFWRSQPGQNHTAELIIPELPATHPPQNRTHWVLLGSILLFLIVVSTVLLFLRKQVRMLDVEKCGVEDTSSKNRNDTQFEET

B1: chimerized TCR construct 11C/34 (TCR, V domains shown)
V domain 1: EPEVTQTPSHQVTQMGQEVILRCVPISNHLYFYWYRQILGQKVEFLVSFYNNEISEKSEIFDDQFSVERPDGSNFTLKIRSTKLEDSAMYFCASSLRLGWIPGNEQFFGPGTRLTVLE
V domain 2: AQSVTQPDIHITVSEGASLELRCNYSYGATPYLFWYVQSPGQGLQLLLKYFSGDTLVQGIKGFEAEFKRSQSSFNLRKPSVHWSDAAEYFCAVGFMDSSYKLIFGSGTRLLVRP
notes: In the assays the TCR stood as an alpha/beta heterodimer on transduced human T cells whose endogenous TCR was knocked out; also called cTCR 11C/34; TCR 11C/34
As to B1, the binding result in assay [1] was “binds”; with full-length murine PD-L1, “no binding”.

B2: chimerized TCR construct 11C/25 (TCR, V domains shown)
V domain 1: EAQVTQNPRYLITVTGKKLTVTCSQNMNHEYMSWYRQDPGLGLRQIYYSMNVEVTDKGDVPEGYKVSRKEKRNFPLILESPSPNQTSLYFCASSLSPAPPSIWSYNEQFFGPGTRLTVLE
V domain 2: AQSVTQLDSQVPVFEEAPVELRCNYSSSVSVYLFWYVQYPNQGLQLLLKYLSGSTLVKGINGFEAEFNKSQTSFHLRKPSVHISDTAEYFCAVSKLAGRRALTFGSGTRLQVQP
notes: In the assays the TCR stood as an alpha/beta heterodimer on transduced human T cells whose endogenous TCR was knocked out; also called cTCR 11C/25; TCR 11C/25
Turning to B2, the values for the binding result (with full-length murine PD-L1; in assay [2]) were “no binding” and “binds”, respectively.
